In patent US20110263827A1 (AbbVie / Abbott, published 2011):

B1: DVD779 (bispecific antibody)
VH: QVQLQESGPGLVKPSQTLSLTCTVSGYSISSDFAWNWIRQPPGKGLEWMGYISYSGNTRYQPSLKSRITISRDTSKNQFFLKLNSVTAADTATYYCVTAGRGFPYWGQGTLVTVSSASTKGPSVFPLAPEVQLVESGGGLVQPGGSLRLSCAASGYTFTNYGMNWVRQAPGKGLEWVGWINTYTGEPTYAADFKRRFTFSLDTSKSTAYLQMNSLRAEDTAVYYCAKYPHYYGSSHWYFDVWGQGTLVTVSS
VL: DIQMTQSPSSMSVSVGDRVTITCHSSQDINSNIGWLQQKPGKSFKGLIYHGTNLDDGVPSRFSGSGSGTDYTLTISSLQPEDFATYYCVQYAQFPWTFGGGTKLEIKRTVAAPSVFIFPPDIQMTQSPSSLSASVGDRVTITCSASQDISNYLNWYQQKPGKAPKVLIYFTSSLHSGVPSRFSGSGSGTDFTLTISSLQPEDFATYYCQQYSTVPWTFGQGTKVEIKR
notes: DVD-Ig; HC L, LC L; variable parts only
B2: DVD809 (bispecific antibody)
VH: QVQLQESGPGLVKPSQTLSLTCTVSGYSISSDFAWNWIRQPPGKGLEWMGYISYSGNTRYQPSLKSRITISRDTSKNQFFLKLNSVTAADTATYYCVTAGRGFPYWGQGTLVTVSSASTKGPSVFPLAPEVQLVESGGGLVQPGGSLRLSCAASGYTFTNYGMNWVRQAPGKGLEWVGWINTYTGEPTYAADFKRRFTFSLDTSKSTAYLQMNSLRAEDTAVYYCAKYPHYYGSSHWYFDVWGQGTLVTVSS
VL: DIQMTQSPSSMSVSVGDRVTITCHSSQDINSNIGWLQQKPGKSFKGLIYHGTNLDDGVPSRFSGSGSGTDYTLTISSLQPEDFATYYCVQYAQFPWTFGGGTKLEIKRTVAAPDIQMTQSPSSLSASVGDRVTITCSASQDISNYLNWYQQKPGKAPKVLIYFTSSLHSGVPSRFSGSGSGTDFTLTISSLQPEDFATYYCQQYSTVPWTFGQGTKVEIKR
notes: DVD-Ig; HC L, LC S; variable parts only
B3: DVD839 (bispecific antibody)
VH: QVQLQESGPGLVKPSQTLSLTCTVSGYSISSDFAWNWIRQPPGKGLEWMGYISYSGNTRYQPSLKSRITISRDTSKNQFFLKLNSVTAADTATYYCVTAGRGFPYWGQGTLVTVSSASTKGPEVQLVESGGGLVQPGGSLRLSCAASGYTFTNYGMNWVRQAPGKGLEWVGWINTYTGEPTYAADFKRRFTFSLDTSKSTAYLQMNSLRAEDTAVYYCAKYPHYYGSSHWYFDVWGQGTLVTVSS
VL: DIQMTQSPSSMSVSVGDRVTITCHSSQDINSNIGWLQQKPGKSFKGLIYHGTNLDDGVPSRFSGSGSGTDYTLTISSLQPEDFATYYCVQYAQFPWTFGGGTKLEIKRTVAAPSVFIFPPDIQMTQSPSSLSASVGDRVTITCSASQDISNYLNWYQQKPGKAPKVLIYFTSSLHSGVPSRFSGSGSGTDFTLTISSLQPEDFATYYCQQYSTVPWTFGQGTKVEIKR
notes: DVD-Ig; HC S, LC L; variable parts only
B4: DVD791 (bispecific antibody)
VH: QVQLQESGPGLVKPSQTLSLTCTVSGYSISSDFAWNWIRQPPGKGLEWMGYISYSGNTRYQPSLKSRITISRDTSKNQFFLKLNSVTAADTATYYCVTAGRGFPYWGQGTLVTVSSASTKGPSVFPLAPEVQLVESGGGLVQPGGSLRLSCAASGFTINASWIHWVRQAPGKGLEWVGAIYPYSGYTNYADSVKGRFTISADTSKNTAYLQMNSLRAEDTAVYYCARWGHSTSPWAMDYWGQGTLVTVSS
VL: DIQMTQSPSSMSVSVGDRVTITCHSSQDINSNIGWLQQKPGKSFKGLIYHGTNLDDGVPSRFSGSGSGTDYTLTISSLQPEDFATYYCVQYAQFPWTFGGGTKLEIKRTVAAPSVFIFPPDIQMTQSPSSLSASVGDRVTITCRASQVIRRSLAWYQQKPGKAPKLLIYAASNLASGVPSRFSGSGSGTDFTLTISSLQPEDFATYYCQQSNTSPLTFGQGTKVEIKR
notes: as for B1
B5: DVD851 (bispecific antibody)
VH: QVQLQESGPGLVKPSQTLSLTCTVSGYSISSDFAWNWIRQPPGKGLEWMGYISYSGNTRYQPSLKSRITISRDTSKNQFFLKLNSVTAADTATYYCVTAGRGFPYWGQGTLVTVSSASTKGPEVQLVESGGGLVQPGGSLRLSCAASGFTINASWIHWVRQAPGKGLEWVGAIYPYSGYTNYADSVKGRFTISADTSKNTAYLQMNSLRAEDTAVYYCARWGHSTSPWAMDYWGQGTLVTVSS
VL: DIQMTQSPSSMSVSVGDRVTITCHSSQDINSNIGWLQQKPGKSFKGLIYHGTNLDDGVPSRFSGSGSGTDYTLTISSLQPEDFATYYCVQYAQFPWTFGGGTKLEIKRTVAAPSVFIFPPDIQMTQSPSSLSASVGDRVTITCRASQVIRRSLAWYQQKPGKAPKLLIYAASNLASGVPSRFSGSGSGTDFTLTISSLQPEDFATYYCQQSNTSPLTFGQGTKVEIKR
notes: as for B3
B6: DVD821 (bispecific antibody)
VH: QVQLQESGPGLVKPSQTLSLTCTVSGYSISSDFAWNWIRQPPGKGLEWMGYISYSGNTRYQPSLKSRITISRDTSKNQFFLKLNSVTAADTATYYCVTAGRGFPYWGQGTLVTVSSASTKGPSVFPLAPEVQLVESGGGLVQPGGSLRLSCAASGFTINASWIHWVRQAPGKGLEWVGAIYPYSGYTNYADSVKGRFTISADTSKNTAYLQMNSLRAEDTAVYYCARWGHSTSPWAMDYWGQGTLVTVSS
VL: DIQMTQSPSSMSVSVGDRVTITCHSSQDINSNIGWLQQKPGKSFKGLIYHGTNLDDGVPSRFSGSGSGTDYTLTISSLQPEDFATYYCVQYAQFPWTFGGGTKLEIKRTVAAPDIQMTQSPSSLSASVGDRVTITCRASQVIRRSLAWYQQKPGKAPKLLIYAASNLASGVPSRFSGSGSGTDFTLTISSLQPEDFATYYCQQSNTSPLTFGQGTKVEIKR
notes: as for B2
B7: DVD756 (bispecific antibody)
VH: EVQLLESGGGLVQPGGSLRLSCAASGFTFSHYVMAWVRQAPGKGLEWVSSISSSGGWTLYADSVKGRFTISRDNSKNTLYLQMNSLRAEDTAVYYCTRGLKMATIFDYWGQGTLVTVSSASTKGPQVQLQESGPGLVKPSQTLSLTCTVSGYSISSDFAWNWIRQPPGKGLEWMGYISYSGNTRYQPSLKSRITISRDTSKNQFFLKLNSVTAADTATYYCVTAGRGFPYWGQGTLVTVSS
VL: QSALTQPASVSGSPGQSITISCTGTSSDVGSYNVVSWYQQHPGKAPKLIIYEVSQRPSGVSNRFSGSKSGNTASLTISGLQTEDEADYYCCSYAGSSIFVIFGGGTKVTVLGQPKAAPDIQMTQSPSSMSVSVGDRVTITCHSSQDINSNIGWLQQKPGKSFKGLIYHGTNLDDGVPSRFSGSGSGTDYTLTISSLQPEDFATYYCVQYAQFPWTFGGGTKLEIKR
notes: DVD-Ig; HC S, LC S; variable parts only
B8: DVD789 (bispecific antibody)
VH: QVQLQESGPGLVKPSQTLSLTCTVSGYSISSDFAWNWIRQPPGKGLEWMGYISYSGNTRYQPSLKSRITISRDTSKNQFFLKLNSVTAADTATYYCVTAGRGFPYWGQGTLVTVSSASTKGPSVFPLAPEVQLVESGGGLVQPGGSLRLSCAASGFTISDYWIHWVRQAPGKGLEWVAGITPAGGYTYYADSVKGRFTISADTSKNTAYLQMNSLRAEDTAVYYCARFVFFLPYAMDYWGQGTLVTVSS
VL: DIQMTQSPSSMSVSVGDRVTITCHSSQDINSNIGWLQQKPGKSFKGLIYHGTNLDDGVPSRFSGSGSGTDYTLTISSLQPEDFATYYCVQYAQFPWTFGGGTKLEIKRTVAAPSVFIFPPDIQMTQSPSSLSASVGDRVTITCRASQDVSTAVAWYQQKPGKAPKLLIYSASFLYSGVPSRFSGSGSGTDFTLTISSLQPEDFATYYCQQSYTTPPTFGQGTKVEIKR
notes: as for B1
B9: DVD849 (bispecific antibody)
VH: QVQLQESGPGLVKPSQTLSLTCTVSGYSISSDFAWNWIRQPPGKGLEWMGYISYSGNTRYQPSLKSRITISRDTSKNQFFLKLNSVTAADTATYYCVTAGRGFPYWGQGTLVTVSSASTKGPEVQLVESGGGLVQPGGSLRLSCAASGFTISDYWIHWVRQAPGKGLEWVAGITPAGGYTYYADSVKGRFTISADTSKNTAYLQMNSLRAEDTAVYYCARFVFFLPYAMDYWGQGTLVTVSS
VL: DIQMTQSPSSMSVSVGDRVTITCHSSQDINSNIGWLQQKPGKSFKGLIYHGTNLDDGVPSRFSGSGSGTDYTLTISSLQPEDFATYYCVQYAQFPWTFGGGTKLEIKRTVAAPSVFIFPPDIQMTQSPSSLSASVGDRVTITCRASQDVSTAVAWYQQKPGKAPKLLIYSASFLYSGVPSRFSGSGSGTDFTLTISSLQPEDFATYYCQQSYTTPPTFGQGTKVEIKR
notes: as for B3
B10: DVD819 (bispecific antibody)
VH: QVQLQESGPGLVKPSQTLSLTCTVSGYSISSDFAWNWIRQPPGKGLEWMGYISYSGNTRYQPSLKSRITISRDTSKNQFFLKLNSVTAADTATYYCVTAGRGFPYWGQGTLVTVSSASTKGPSVFPLAPEVQLVESGGGLVQPGGSLRLSCAASGFTISDYWIHWVRQAPGKGLEWVAGITPAGGYTYYADSVKGRFTISADTSKNTAYLQMNSLRAEDTAVYYCARFVFFLPYAMDYWGQGTLVTVSS
VL: DIQMTQSPSSMSVSVGDRVTITCHSSQDINSNIGWLQQKPGKSFKGLIYHGTNLDDGVPSRFSGSGSGTDYTLTISSLQPEDFATYYCVQYAQFPWTFGGGTKLEIKRTVAAPDIQMTQSPSSLSASVGDRVTITCRASQDVSTAVAWYQQKPGKAPKLLIYSASFLYSGVPSRFSGSGSGTDFTLTISSLQPEDFATYYCQQSYTTPPTFGQGTKVEIKR
notes: as for B2
B11: DVD337 (bispecific antibody)
VH: QVQLQESGPGLVKPSQTLSLTCTVSGYSISSDFAWNWIRQPPGKGLEWMGYISYSGNTRYQPSLKSRITISRDTSKNQFFLKLNSVTAADTATYYCVTAGRGFPYWGQGTLVTVSSASTKGPEVQLVESGGGLVQPGGSLRLSCAASGYTFTNYGMNWVRQAPGKGLEWVGWINTYTGEPTYAADFKRRFTFSLDTSKSTAYLQMNSLRAEDTAVYYCAKYPHYYGSSHWYFDVWGQGTLVTVSS
VL: DIQMTQSPSSMSVSVGDRVTITCHSSQDINSNIGWLQQKPGKSFKGLIYHGTNLDDGVPSRFSGSGSGTDYTLTISSLQPEDFATYYCVQYAQFPWTFGGGTKLEIKRTVAAPDIQMTQSPSSLSASVGDRVTITCSASQDISNYLNWYQQKPGKAPKVLIYFTSSLHSGVPSRFSGSGSGTDFTLTISSLQPEDFATYYCQQYSTVPWTFGQGTKVEIKR
notes: as for B7

Legend:
VEGF = biological target: T1, VEGF (UniProt P15692-4 27-191, limits assumed, biotinylated); experiment: direct bind ELISA, C-term VD;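 note: ELISA with antibody or DVD-Ig preparations applied to target antigen-coated plates for 1 h at room temperature, TMB colour development, absorbance read at 450 nm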
T1 construct: ELISA antigen

EGFR [1] = biological target: T2, EGFR (UniProt P00533 25-645, limits assumed, biotinylated); experiment: direct bind ELISA, N-term VD;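 note: antibody or DVD-Ig preparations bound to immobilized target antigen on ELISA plates, 1 h at room temperature, TMB detection read as absorbance at 450 nm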
T2 construct: ELISA antigen; construct not described

EGFR [2] = biological target: T2, EGFR; experiment: direct bind ELISA, C-term VD;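 note: ELISA with antibody or DVD-Ig preparations applied to target antigen-coated plates for 1 h at room temperature, TMB colour development, absorbance read at 450 nm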
ErbB3 = biological target: T3, ErbB3 (UniProt P21860 20-643, limits assumed, biotinylated); experiment: direct bind ELISA, N-term VD;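 note: antibody or DVD-Ig preparations bound to immobilized target antigen on ELISA plates, 1 h at room temperature, TMB detection read as absorbance at 450 nm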
T3 construct: ELISA antigen

Binder | EC50 (VEGF) | EC50 (EGFR [1]) | EC50 (EGFR [2]) | EC50 (ErbB3)
B1 | 0.24 nM | 10.6 nM | – | –
B2 | 0.23 nM | 7.34 nM | – | –
B3 | 0.26 nM | 12.5 nM | – | –
B4 | 11.6 nM | 8.24 nM | – | –
B5 | 28.4 nM | 9.36 nM | – | –
B6 | 11.1 nM | 6.96 nM | – | –
B7 | – | – | 48.9 nM | 3.94 nM
B8 | 46 nM | 14.6 nM | – | –
B9 | 59.6 nM | 12.3 nM | – | –
B10 | 36.4 nM | 12.2 nM | – | –
B11 | 0.57 nM | 6.5 nM | – | –
